Measured values: US20250381289A1, “EGFR AND C-MET BISPECIFIC BINDING AGENTS, CONJUGATES THEREOF AND METHODS OF USING THE SAME” (GENMAB A/S, priority 2024, published 2025)
Residue numbers refer to the chain shown, from its start.

B1: Onartuzumab: parent cMET mAb; sequences in Table 1 (antibody, V domains shown)
VH: EVQLVESGGGLVQPGGSLRLSCAASGYTFTSYWLHWVRQAPGKGLEWVGMIDPSNSDTRFNPNFKDRFTISADTSKNTAYLQMNSLRAEDTAVYYCATYRSYVTPLDYWGQGTLVTVSS
VL: DIQMTQSPSSLSASVGDRVTITCKSSQSLLYTSSQKNYLAWYQQKPGKAPKLLIYWASTRESGVPSRFSGSGSGTDFTLTISSLQPEDFATYYCQQYYAYPWTFGQGTKVEIK
B2: Nova-5091: parent cMET mAb; sequences in Table 1 (antibody, V domains shown)
VH: QVQLVQSGAEVKKPGASVKVSCKASGYTFTGYYMNWVRQAPGQGLEWMGIINPWTGNTNYAQKFQGRVTMTRDTSISTAYMELSSLRSEDTAVYYCARDPGFFYYTPSDLWGQGTLVTVSS
VL: DIELTQPPSVSVAPGQTARISCSGDSIGNKYVHWYQQKPGQAPVLVIYADSDRPSGIPERFSGSNSGNTATLTISGTQAEDEADYYCQSYAHYHDIWVFGGGTKLTVLG
B3: Nova-5097: parent cMET mAb; sequences in Table 1 (antibody, V domains shown)
VH: QVQLVQSGAEVKKPGSSVKVSCKASGGTFSSYAISWVRQAPGQGLEWMGGIDPFGTANYAQKFQGRVTITADESTSTAYMELSSLRSEDTAVYYCARVYQDVWGQGTLVTVSS
VL: DIVMTQSPDSLAVSLGERATINCRSSQSILYGINNNFLGWYQQKPGQPPKLLIYWASTRESGVPDRFSGSGSGTDFTLTISSLQAEDVAVYYCQQYAFGWTFGQGTKVEIK
B4: Nova-5098: parent cMET mAb; sequences in Table 1 (antibody, V domains shown)
VH: B3 VH
VL: DIVMTQSPDSLAVSLGERATINCRSSQSILYGINNNFLGWYQQKPGQPPKLLIYWASTRESGVPDRFSGSGSGTDFTLTISSLQAEDVAVYYCLQYSDEPWTFGQGTKVEIK
B5: Nova-5185: parent cMET mAb; sequences in Table 1 (antibody, V domains shown)
VH: B3 VH with F54I, G55M, T56G, A57T, N58E
VL: B4 VL with L94Q, S97A, D98Y, W101N
B6: ABF-46: parent cMET mAb, mouse antibody; sequences in Table 1 (antibody, V domains shown)
VH: EVKLVESGGGLVQPGGSLRLSCATSGFTFTDYYMSWVRQPPGKALEWLGFIRNKANGYTTEYSASVKGRFTISRDNSQSILYLQMDTLRAEDSATYYCARDNWFAYWGQGTLVTVSA
VL: DILMTQSPSSLTVSAGEKVTMSCKSSQSLLASGNQNNYLAWHQQKPGRSPKMLIIWASTRVSGVPDRFIGSGSGTDFTLTINSVQAEDLAVYYCQQSYSAPLTFGAGTKLELK

The molecules below were run on EGFR and cMET co-expressed tumor cell lines (A431, A549, MDA-MB-468, MKN-45, NCI-H441, NCI-H1975) (assay: Binding activity of parent mAbs by flow cytometry). Settings: flow cytometry on tumor cell lines, FIGS. 1A-1F, Table 4; compared with telisotuzumab (teliso).
Description: EGFR and cMET co-expressed tumor cell lines including A431 (ATCC® CRL-1555), A549 (ATCC® CCL-185, Provided by Procell), MDA-MB-468 (ATCC® HTB-132, Provided by Procell), MKN-45 (CL-0292, Provided by Procell), NCI-H441 (ATCC® HTB-174, Provided by COBIOER), NCI-H1975 (ATCC® CRL-5908, Provided by Procell) were selected for evaluating antibody binding activity by flow cytometry.
A431 was cultured with DMEM medium (Gibco, Cat #C11995500BT) containing 10% FBS. MDA-MB-468, MKN-45, NCI-H441 and NCI-H1975 were cultured with RPMI 1640 medium (Gibco, Cat #11875093) containing 10% FBS. A549 was cultured with F12K medium (Gibco, Cat #21127030) containing 10% FBS. Each antibody was incubated with different cell lines (1×10^5 cells/well) for 30 min in 0.2 mL FACS buffer (1×PBS with 0.1% BSA) at 4° C. After wash, cells were incubated with 100 μL PE-conjugated anti human Fc (Abcam, Ab98596, 1:500 dilution) for 30 min at 4° C. After wash with PBS, cells were resuspended in FACS buffer and analyzed by flow cytometer (Beckman, CytoFLEX).

Row | Molecule | binding activity of parent cMET mAbs (summary)
1 | B1 | Stronger binding than teliso, tumor promoting activity due to bivalent binding
2 | B2 | No binding activity
3 | B3 | Stronger binding than teliso, no clinical validation
4 | B4 | Stronger binding than teliso, no clinical validation
5 | B5 | Stronger binding than teliso, seems to have off-target binding
6 | B6 | Lower activity than teliso, mouse antibody, filed in 2010; inferior choice
